Assay results published in PMC3745347, “Interaction of Glucocorticoid Receptor (GR) with Estrogen Receptor (ER) α and Activator Protein 1 (AP1) in Dexamethasone-mediated Interference of ERα Activity*” (The Journal of Biological Chemistry, 2013).

Biological target: T1, baculovirus expressed full-length human GR (human, UniProt P04150 1-777)
T1 construct: human glucocorticoid receptor, full length, baculovirus-expressed; source: produced in baculovirus, bought: Invitrogen, partially purified
T1 sequence (looked up): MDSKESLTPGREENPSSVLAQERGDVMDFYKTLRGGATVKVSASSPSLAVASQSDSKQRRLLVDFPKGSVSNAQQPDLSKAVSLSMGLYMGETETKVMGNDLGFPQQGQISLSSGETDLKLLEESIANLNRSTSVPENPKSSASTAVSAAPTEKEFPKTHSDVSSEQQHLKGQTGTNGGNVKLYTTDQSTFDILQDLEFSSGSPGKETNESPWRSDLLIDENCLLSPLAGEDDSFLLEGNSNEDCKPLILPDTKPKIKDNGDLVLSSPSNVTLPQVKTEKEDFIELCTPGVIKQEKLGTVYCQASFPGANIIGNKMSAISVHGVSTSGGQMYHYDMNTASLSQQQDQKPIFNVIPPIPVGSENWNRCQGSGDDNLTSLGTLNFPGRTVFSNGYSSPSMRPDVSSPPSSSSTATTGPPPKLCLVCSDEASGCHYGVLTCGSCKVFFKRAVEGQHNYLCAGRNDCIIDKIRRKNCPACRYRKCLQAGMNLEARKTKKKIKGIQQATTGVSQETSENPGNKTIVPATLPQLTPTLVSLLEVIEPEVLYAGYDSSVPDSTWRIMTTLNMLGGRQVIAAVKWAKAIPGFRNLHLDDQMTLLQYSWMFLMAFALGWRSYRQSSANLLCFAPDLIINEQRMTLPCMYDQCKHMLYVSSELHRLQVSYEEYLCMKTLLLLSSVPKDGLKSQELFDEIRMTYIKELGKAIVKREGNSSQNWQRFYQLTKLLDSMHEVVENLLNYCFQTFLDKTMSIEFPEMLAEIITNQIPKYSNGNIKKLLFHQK
Test: pull-down; GST-ERα proteins on glutathione beads incubated with baculovirus-expressed, partially purified human GR; 50 mM Tris pH 8.0, 5 mM EDTA, 150 mM NaCl, 0.5% Nonidet P-40, 1 h at 4 °C; washes with up to 500 mM NaCl; blot for GR
Conditions: both partners purified

binding result: binds
B1: GST-ERα-N (aa 1-250) (domain or fragment, human, UniProt P03372 1-250, looked up)
chain: MTMTLHTKASGMALLHQIQGNELEPLNRPQLKIPLERPLGEVYLDSSKPAVYNYPEGAAYEFNAAAAANAQVYGQTGLPYGPGSEAAAFGSNGLGGFPPLNSVSPSPLMLLHPPPQLSPFLQPHGQQVPYYLENEPSGYTVREAGPPAFYRPNSDNRRQGGRERLASTNDKGSMAMESAKETRYCAVCNDYASGYHYGVWSCEGCKAFFKRSIQGHNDYMCPATNQCTIDKNRRKSCQACRLRKCYEVGM
notes: estrogen receptor alpha, residues 1-250 (N-terminal region: AF1 and DBD); Made in pGEX-6P1; the species of the GST construct itself is not separately stated; also called N-terminal half of ERα
